Data from the supplement of paper PMC12042874.
± gives the uncertainty stated by the source.

test: amyloid nucleation score (Sup35N fusion, yeast selection) (log enrichment); library NNK2; higher = more nucleation; inactive = no reads after selection
Outline: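 Nucleation score: DiMSum log enrichment of output over input reads, centred on the mode score of non-aggregating sequences. Only sequences with at least 100 input reads were kept. Reads came from Illumina sequencing of plasmid inserts before and after 7 days of growth at 30°C without adenine and uracil, in psi-negative yeast expressing Sup35N fused to peptides of 20 random codons after 24 hours of induction with 100 μM copper sulfate.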

In order of falling amyloid nucleation score:
1. YYWTPCGVCITFVGCNVILY  8.499 ± 0.022
2. FDNQFTLVVRGIVGTVYWCV  7.233 ± 0.065
3. TCWSFECTIEACLLDHVSTR  5.97 ± 0.081
4. RPTHEAF  5.87 ± 0.089
5. EGSCYIWGSMAITFNAHHDR  5.68 ± 0.077
6. RWHLFSITYLKVLDWDCCLW  5.45 ± 0.034
7. NYWCMVV  5.24 ± 0.075
8. RLRFPSPFRTVNWSFIRFAR  5.03 ± 0.069
9. VYAMVGVSLACGCVSWKGHV  4.75 ± 0.086
10. RNFDMPLLAYGMTWEQLMEF  4.51 ± 0.058
11. NLFYLARSMLINLQMYKTER  4.46 ± 0.08
12. HHNTCKGM  4.35 ± 0.062
13. CIQTSSREVSFRSIATDGST  4.27 ± 0.047
14. TSGVTWQLACSVK  4.2 ± 0.095
15. WNLCGCAFDQLYKGVRSVNG  3.84 ± 0.066
16. LSMQKCSLIIISRCGRSRNM  3.77 ± 0.057
17. ISESLSRWART  3.69 ± 0.12
18. PCRRYRVLFWGGSLVSSMGK  3.3 ± 0.07
19. LFEDVMRKGRWRDASGRWKH  3.27 ± 0.17
20. VGTILAPGGLWGMEVCWQTK  3.06 ± 0.12
21. RVIQLQKVTHWW  2.72 ± 0.078
22. CCVGGVPV  2.57 ± 0.083
23. AYAKGYCLLSPVLDWRLHFS  2.52 ± 0.13
24. LLARVYKTICCMNWGFRNE  2.06 ± 0.1
25. YSSNGPGEKWRYR  2.04 ± 0.09
26. LVSFKGKVLFFIS  1.86 ± 0.13
27. FWSIMWLVCPGAMWCNT  1.84 ± 0.28
28. DLVNV  1.8 ± 0.38
29. DNTELFKNDFKFKLYLSNKI  1.72 ± 0.24
30. DDIAVCWNCFVRLILMMWED  1.57 ± 0.42
31. VLLRVRRCYSVPTFRVWSAT  1.39 ± 0.18
32. THYGLMVCQTPVGRRSASCR  1.32 ± 0.28
33. NWLGCEMPIGGSSSVSAMYL  1.17 ± 0.21
34. AQWCEGVVSLQLSWVVCVEG  1.16 ± 0.34
35. CAPDVQWFSKIAFE  1.1 ± 0.53
36. LLLVHL  1.08 ± 0.68
37. MHGREFWRCTSWSSLVNLGV  0.998 ± 0.19
38. PSQVL  0.992 ± 0.52
39. PLISRYDYFVCIRILSHSDN  0.98 ± 0.81
40. PYIEVY  0.926 ± 0.52
41. CCQSFNVNRSTLNNLGRSYL  0.848 ± 0.16
42. HSLLSLLVVFYLQDRSRVIC  0.848 ± 0.13
43. NVGTRWSGDARNMFSSKGGK  0.83 ± 0.31
44. LMQVSA  0.829 ± 0.41
45. SCNPRKNGSQCCGMNLSLSV  0.808 ± 0.8
46. ANVENVAYSDTISRSDSDVT  0.805 ± 0.66
47. MLANTYDSEPSRHRCVGKPI  0.754 ± 0.44
48. VSCDNASSVLFFVRTTIWCT  0.751 ± 0.74
49. CIMPVCVYDCLPLGRGIYWR  0.745 ± 0.22
50. RSHTTGLPS  0.718 ± 0.15
51. LRSCKALGGGVTRPTGYS  0.709 ± 0.47
52. DANDSSWEGG  0.669 ± 0.74
53. IDLAHGWSSSH  0.66 ± 0.57
54. GRILNFMSHDWGDHMICGKK  0.65 ± 0.66
55. KGIAVSVVPYSPVNTGDSAV  0.632 ± 0.48
56. GNGWAMSVTKR  0.571 ± 0.64
57. CPRLCLMLLPFKTCMIGTRE  0.57 ± 0.81
58. AFGKACPGMCMTKFTACTNR  0.569 ± 0.13
59. YRVSIMYDAWDGLARWFYRR  0.507 ± 0.46
60. MVCSRYRRVCSNVNG  0.506 ± 0.48
61. MLRPAAHDGVKASYVKFKI  0.489 ± 0.45
62. HEAYLPRLNDVTTSPSPCPY  0.487 ± 0.62
63. LCRVALKEDS  0.436 ± 0.8
64. EILYYWPVNVICRKSVKDCI  0.434 ± 0.66
65. LCSYANKDFKVHRSHDFVRV  0.369 ± 0.43
66. MYPSG  0.321 ± 0.49
67. VVLQTKHSLAISGQQLIPMA  0.32 ± 0.32
68. IGSLNMLLLGRLVVWMRHIA  0.312 ± 0.54
69. LTMQKWLF  0.28 ± 0.62
70. TRMCGMGTQGGLSRF  0.257 ± 0.65
71. PSRMCSCCPLRGSCKDMACR  0.256 ± 0.18
72. EGFKYWIDKGSSGTVCVKST  0.249 ± 0.65
73. LRLDLRMPQRYRLGDTFVSS  0.243 ± 0.24
74. DNGNTMDES  0.232 ± 0.55
75. DDWEVRN  0.231 ± 0.31
76. NLLWYKLNLNTYVACAIKWW  0.198 ± 0.38
77. QERSILGLHWYICRVAKLSF  0.196 ± 0.64
78. MFARDNRFPYCDDTRSDSSF  0.178 ± 0.45
79. CSNLSV  0.167 ± 0.28
80. QGRGLRYQH  0.166 ± 0.76
81. PGRDTVTLLHLCHFGVGSGF  0.165 ± 1
82. YAFQW  0.152 ± 0.77
83. SVYRGASKVSRCRNVKTGR  0.132 ± 0.32
84. LVTLFESGFFRRLTSMDGLF  0.115 ± 0.51
85. GRDFCFEVSHYVVMFAFLRD  0.114 ± 0.63
86. HCLGRLVASWNPQWEFHRRT  0.103 ± 0.38
87. AYIDVTWWPFVFLDQVMYTT  0.089 ± 0.48
88. LLCYRWGHVN  0.057 ± 0.76
89. GVSVSSLSACPKEDFGSFSE  0.051 ± 0.63
90. CTFTRLRSSAGSGIRQTPRL  0.048 ± 0.79
91. TGNDFSCFPRALEMATWTTV  0.016 ± 1.1
92. PGYVAWRIFFFGPVI  0.007 ± 1.1
93. KKQSRIHLSTSKNRFTWNTW  0.007 ± 0.35
94. VVSFNWLEYVSNMSQMNWDG  -0.015 ± 0.63
95. NRECCTSDLRIMNVLRPL  -0.028 ± 0.18
96. YLCAFVRWWYR  -0.029 ± 1.1
97. LIPHSTSHRGFKLYSRVFYP  -0.047 ± 1.1
98. DMLPLMSAVPHSFSMLVWGE  -0.109 ± 0.36
99. RIVCSNSWR  -0.113 ± 1.1
100. DWHYIEKWT  -0.12 ± 0.49
101. DTRKFLDKLYA  -0.13 ± 0.44
102. FYKGYACHITAQYNLCVDNA  -0.146 ± 1
103. DTPGHGNACSKIRP  -0.159 ± 0.55
104. RGCIGK  -0.161 ± 0.65
105. FIQVSHCYAKMPYTTVTPGA  -0.191 ± 0.79
106. LYLTGNF  -0.199 ± 0.76
107. LCMQSVSGALSPSARRRLCV  -0.235 ± 1.1
108. WGHFQEDARFTSYGVGSVLG  -0.263 ± 1.1
109. TATETFAF  -0.28 ± 0.28
110. FWLSTWSFNVVYPDGEAQKS  -0.303 ± 0.48
111. GYDNTAWELTGGVD  -0.311 ± 0.3
112. YWKPCLVAVGWSTQLRCCPV  -0.324 ± 0.3
113. IVTAGWNLVFRKYADTRMVQ  -0.337 ± 1.1
114. LLLCYS  -0.344 ± 0.27
115. GLTASL  -0.375 ± 0.49
116. YEDSGRRKLLNGP  -0.381 ± 1.1
117. SGYQGKYRSMSPRFKFSWVG  -0.392 ± 0.63
118. MRWGY  -0.393 ± 1
119. HVYLSLEDQGILNSTECMQH  -0.393 ± 1.1
120. ACSDGVAMECKV  -0.429 ± 0.44
121. IHAFLALVNCNDTSTKTEVK  -0.435 ± 0.56
122. THVLIFFMVLDLGPFKTGAD  -0.441 ± 1.1
123. DNSAGDLYNSSVTGSPVMQL  -0.447 ± 0.22
124. YCKGSS  -0.46 ± 1
125. LEPYLS  -0.48 ± 0.49
126. NHAVVCLDFNGGFPGQA  -0.481 ± 0.53
127. SPLASYIAVLWGNVR  -0.515 ± 1.1
128. NQCAVQGLYRRRMVHDRQED  -0.52 ± 0.78
129. VEVGLIVGSCSILI  -0.525 ± 0.64
130. GYIMIPRYPPSKHLCF  -0.545 ± 0.41
131. HQYGLNIKCFKCAILSKSGT  -0.562 ± 1
132. MNVDGNFWAGVELTYIEGSS  -0.587 ± 0.79
133. YGDGGDIC  -0.612 ± 0.35
134. KRFIWCFRVTLFT  -0.633 ± 1.1
135. LYYMHNE  -0.652 ± 0.64
136. RWDCLQLLISSCFFDMDGCG  -0.668 ± 0.64
137. FVESVSEPALCIFKVSGYCS  -0.685 ± 0.79
138. HASNH  -0.689 ± 0.42
139. SEFYIRLQYNNVVIVDLFEV  -0.701 ± 0.63
140. TFINAGFRLHFRFYRFVFSK  -0.717 ± 1
141. LGNDR  -0.744 ± 0.48
142. SEAKGYLIWGFLWLFGYDFE  -0.802 ± 0.63
143. NFKWLILAGGVC  -0.808 ± 0.41
144. FTLGANLT  -0.855 ± 0.76
145. FSHYLSRRGRPYHANCKEAL  -0.922 ± 0.39
146. YRMCLLRYT  -0.936 ± 0.55
147. YYVAIVSLWSGVKYVMVKFA  -1.07 ± 0.78
148. WRSYDMYSSWSIYVMAMTIS  -1.11 ± 0.53
149. GLWRLYWILFHF  -1.17 ± 0.78
150. NLIKNSAMLSSTRPIYHHSI  -1.27 ± 0.3
151. GSVVHQEFFSPSKGFVSSQF  -1.4 ± 0.55
152. VDSTFSHSSSFWELYRPTHL  -1.41 ± 1.1
153. TIRFS  -1.58 ± 0.37
154. FCILYSVFNGRLRYAFGDAS  -2.06 ± 0.62
155. FFVTAPIGMFSLD  -2.17 ± 0.44

With IRFYGS the amyloid nucleation score was “inactive”.
In the case of RTARPILDPC, the amyloid nucleation score is reported as “inactive”.
With FLRENLCTDVGLTHVCCTYT the amyloid nucleation score was “inactive”.
With PLGTSTTSFRSAVFQGMTWL the amyloid nucleation score was “inactive”.
For VFYNIL, the amyloid nucleation score was “inactive”.
For LVRPILLYYSMLV, the amyloid nucleation score was “inactive”.
For LGHILV, the amyloid nucleation score was “inactive”.
For GSSVIFSALRMYVSLFLYLV, the amyloid nucleation score was “inactive”.
In the case of KERRSSVLVKNRVCSNGYF, the amyloid nucleation score is reported as “inactive”.
In the case of SIFFNRASCLRRV, the amyloid nucleation score is reported as “inactive”.
With EGEITFGTFPYSEFVFECST the amyloid nucleation score was “inactive”.
In the case of GHHLISSDFFDYWGHNMFSG, the amyloid nucleation score is reported as “inactive”.
For DYIEKGFPGLPYHSCGSSTF, the amyloid nucleation score was “inactive”.
With YYMKVVMVDTQTQV the amyloid nucleation score was “inactive”.
For YYHCPTSFFYIV, the amyloid nucleation score was “inactive”.
In the case of KALFLYYSSVRITHNKLHAR, the amyloid nucleation score is reported as “inactive”.
For NKVVAFNGLV, the amyloid nucleation score was “inactive”.
In the case of YFRDRSFKKIILLPNWFMNT, the amyloid nucleation score is reported as “inactive”.
For YSENNLIG, the amyloid nucleation score was “inactive”.
For NVFKGPVLHGFRDRISWVKD, the amyloid nucleation score was “inactive”.
